Biological target: dimeric human Tie2 extracellular domain (ECD)-human IgG fusion protein (UniProt Q02763)
Sequence (Q02763 23-748): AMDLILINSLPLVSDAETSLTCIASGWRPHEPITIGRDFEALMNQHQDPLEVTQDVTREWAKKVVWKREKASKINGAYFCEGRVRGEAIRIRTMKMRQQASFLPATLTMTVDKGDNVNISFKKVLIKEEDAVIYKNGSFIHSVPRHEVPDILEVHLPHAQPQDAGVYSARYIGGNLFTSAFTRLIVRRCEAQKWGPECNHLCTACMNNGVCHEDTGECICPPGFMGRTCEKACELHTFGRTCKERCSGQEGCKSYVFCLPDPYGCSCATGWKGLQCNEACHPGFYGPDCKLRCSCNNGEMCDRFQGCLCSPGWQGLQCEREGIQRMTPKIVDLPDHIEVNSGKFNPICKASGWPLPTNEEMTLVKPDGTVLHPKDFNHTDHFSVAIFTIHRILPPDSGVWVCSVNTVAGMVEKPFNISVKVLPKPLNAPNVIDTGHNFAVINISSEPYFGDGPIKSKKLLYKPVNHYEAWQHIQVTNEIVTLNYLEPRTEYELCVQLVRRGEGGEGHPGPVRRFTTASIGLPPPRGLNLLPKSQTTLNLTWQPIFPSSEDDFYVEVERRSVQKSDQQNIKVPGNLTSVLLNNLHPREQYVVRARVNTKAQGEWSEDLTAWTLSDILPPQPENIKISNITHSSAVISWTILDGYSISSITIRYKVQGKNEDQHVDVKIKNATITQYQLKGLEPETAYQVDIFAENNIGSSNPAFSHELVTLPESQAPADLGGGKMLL

Recombinant human MMP-14
cleavage of hTie2-ECD (reducing SDS-PAGE, 30° C., 16 hours): co-incubation of MMP-14 and human Tie2 resulted in significant reduction of intact hTie2-ECD, with the appearance of shorter, cleaved fragments
